Consider two substances from publication PMC8948467.

As a reminder, the stoichiometry N is a count of units in the complex or per binding partner.

Test [1] deals with IgA of the IgM/IgA-enriched immunoglobulin Pentaglobin. Nature of the test: non-reducing SDS-PAGE with Western blot; Pentaglobin separated by non-reducing SDS-PAGE, transferred to nitrocellulose; J-chain, IgA and IgM detected with specific antibodies and fluorophore labeled secondary antibodies.
For test [2], the target named is IgM of the IgM/IgA-enriched immunoglobulin Pentaglobin. The description is as above.

Chain of IgA of the IgM/IgA-enriched immunoglobulin Pentaglobin (P01876 whole entry): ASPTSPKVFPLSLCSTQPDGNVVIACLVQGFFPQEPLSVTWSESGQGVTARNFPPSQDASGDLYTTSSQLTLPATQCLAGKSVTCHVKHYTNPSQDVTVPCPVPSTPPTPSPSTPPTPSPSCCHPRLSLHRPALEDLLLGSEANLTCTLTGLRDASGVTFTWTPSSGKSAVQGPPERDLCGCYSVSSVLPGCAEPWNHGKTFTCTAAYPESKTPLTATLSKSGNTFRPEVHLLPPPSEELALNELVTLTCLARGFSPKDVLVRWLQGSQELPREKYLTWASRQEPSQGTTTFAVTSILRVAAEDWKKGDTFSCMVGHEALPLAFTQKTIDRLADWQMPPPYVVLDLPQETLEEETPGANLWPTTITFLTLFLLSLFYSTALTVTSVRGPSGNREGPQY
Chain of IgM of the IgM/IgA-enriched immunoglobulin Pentaglobin (P01871 whole entry): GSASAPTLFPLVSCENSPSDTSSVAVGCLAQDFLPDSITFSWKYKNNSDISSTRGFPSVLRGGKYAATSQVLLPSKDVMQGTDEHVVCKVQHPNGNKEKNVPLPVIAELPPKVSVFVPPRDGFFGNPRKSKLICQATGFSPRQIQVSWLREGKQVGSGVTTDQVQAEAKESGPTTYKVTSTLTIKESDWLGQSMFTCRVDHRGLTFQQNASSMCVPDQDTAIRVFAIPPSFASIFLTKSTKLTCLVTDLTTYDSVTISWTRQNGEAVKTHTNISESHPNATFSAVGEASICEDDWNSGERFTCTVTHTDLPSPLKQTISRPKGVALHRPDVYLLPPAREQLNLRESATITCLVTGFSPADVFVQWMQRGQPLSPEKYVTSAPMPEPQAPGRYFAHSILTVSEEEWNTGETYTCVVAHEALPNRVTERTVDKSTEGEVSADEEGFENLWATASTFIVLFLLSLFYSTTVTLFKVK

In test [1], “IgA of the IgM/IgA-enriched immunoglobulin Pentaglobin (natural protein)” displayed a stoichiometry N of 2. For “IgM of the IgM/IgA-enriched immunoglobulin Pentaglobin (natural protein)”, the stoichiometry N in test [2] was 5.
